Measurements: PMC6726503

Biological target: T1, human TGF-β2 (human)
T1 sequence (P61812 303-414, looked up): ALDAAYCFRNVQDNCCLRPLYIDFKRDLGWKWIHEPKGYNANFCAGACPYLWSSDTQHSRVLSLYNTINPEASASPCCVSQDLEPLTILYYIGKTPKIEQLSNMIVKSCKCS
Experiment: SPR

B1: full-length rat betaglycan ectodomain (domain or fragment)
chain: GPEPSTRCELSPINASHPVQALMESFTVLSGCASRGTTGLPREVHVLNLRSTDQGPGQRQREVTLHLNPIASVHTHHKPIVFLLNSPQPLVWHLKTERLAAGVPRLFLVSEGSVVQFPSGNFSLTAETEERNFPQENEHLLRWAQKEYGAVTSFTELKIARNIYIKVGEDQVFPPTCNIGKNFLSLNYLAEYLQPKAAEGCVLPSQPHEKEVHIIELITPSSNPYSAFQVDIIVDIRPAQEDPEVVKNLVLILKCKKSVNWVIKSFDVKGNLKVIAPNSIGFGKESERSMTMTKLVRDDIPSTQENLMKWALDNGYRPVTSYTMAPVANRFHLRLENNEEMRDEEVHTIPPELRILLDPDHPPALDNPLFPGEGSPNGGLPFPFPDIPRRGWKEGEDRIPRPKQPIVPSVQLLPDHREPEEVQGGVDIALSVKCDHEKMVVAVDKDSFQTNGYSGMELTLLDPSCKAKMNGTHFVLESPLNGCGTRHRRSTPDGVVYYNSIVVQAPSPGDSSGWPDGYEDLESGDNGFPGDGDEGETAPLSRAGVVVFNCSLRQLRNPSGFQGQLDGNATFNMELYNTDLFLVPSPGVFSVAENEHVYVEVSVTKADQDLGFAIQTCFLSPYSNPDRMSDYTIIENICPKDDSVKFYSSKRVHFPIPHAEVDKKRFSFLFKSVFNTSLLFLHCELTLCSRKKGSLKLPRCVTPDDACTSLDATMIWTMMQNKKTFTKPLAVVLQVDYKENVPSTKDSSPIPPPPPQIFHGLDTLTV
For B1, the Kd was 0.511 nM, the koff was 0.000755 s⁻¹ and the kon was 1.48e+06 M⁻¹ s⁻¹.
